Data reported in patent publication US10087225B2, “Formulation of MK2 inhibitor peptides” (MOERAE MATRIX, INC., priority 2015, dated 2018).

Tests used:
Assay in all cases: Kinase Profiling Assay
Type in all cases: biochemical
DYRK2(h) = biological target: T1, DYRK2(h) (Homo sapiens, UniProt Q92630); conditions: 100 μM
T1 sequence (Q92630 1-601): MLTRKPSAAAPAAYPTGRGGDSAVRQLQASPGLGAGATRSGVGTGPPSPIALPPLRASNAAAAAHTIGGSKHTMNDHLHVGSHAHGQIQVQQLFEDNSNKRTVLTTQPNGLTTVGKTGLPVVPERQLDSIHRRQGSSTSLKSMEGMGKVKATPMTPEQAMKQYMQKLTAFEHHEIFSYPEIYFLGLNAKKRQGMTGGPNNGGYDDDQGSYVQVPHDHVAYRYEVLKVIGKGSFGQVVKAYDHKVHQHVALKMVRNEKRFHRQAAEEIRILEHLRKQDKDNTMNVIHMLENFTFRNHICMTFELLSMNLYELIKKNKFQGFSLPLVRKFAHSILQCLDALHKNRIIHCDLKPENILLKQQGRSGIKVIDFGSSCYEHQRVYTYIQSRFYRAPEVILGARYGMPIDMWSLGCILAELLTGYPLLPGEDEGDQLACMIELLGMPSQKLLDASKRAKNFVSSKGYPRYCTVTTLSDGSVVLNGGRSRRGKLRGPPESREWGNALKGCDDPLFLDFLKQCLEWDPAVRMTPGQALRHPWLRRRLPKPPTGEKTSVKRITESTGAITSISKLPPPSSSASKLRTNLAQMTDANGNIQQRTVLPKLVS

PTK5(h) = PTK5(h) (Homo sapiens, UniProt P42685); conditions: for % activity: 100 μM
SGK3(h) = biological target: T2, SGK3(h) (Homo sapiens, UniProt Q96BR1); conditions: for % activity: 100 μM
T2 sequence (Q96BR1 1-496): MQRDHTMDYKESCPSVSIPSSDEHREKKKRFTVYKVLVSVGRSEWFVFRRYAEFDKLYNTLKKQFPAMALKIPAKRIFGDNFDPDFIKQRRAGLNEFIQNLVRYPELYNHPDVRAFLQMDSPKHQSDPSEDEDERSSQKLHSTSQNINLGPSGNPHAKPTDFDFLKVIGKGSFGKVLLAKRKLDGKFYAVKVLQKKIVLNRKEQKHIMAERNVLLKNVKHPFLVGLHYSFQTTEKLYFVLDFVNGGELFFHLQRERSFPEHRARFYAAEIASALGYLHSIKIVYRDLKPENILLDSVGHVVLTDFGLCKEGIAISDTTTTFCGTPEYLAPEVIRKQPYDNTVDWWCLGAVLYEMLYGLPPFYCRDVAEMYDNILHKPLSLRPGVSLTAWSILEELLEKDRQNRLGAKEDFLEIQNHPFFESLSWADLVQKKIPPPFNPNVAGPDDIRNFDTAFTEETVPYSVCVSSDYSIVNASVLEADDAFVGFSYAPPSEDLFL

EphA5(h) = EphA5(h) (Homo sapiens, UniProt P54756); conditions: for % activity: 100 μM
Txk(h) = biological target: T3, Txk(h) (Homo sapiens, UniProt P42681); conditions: for % activity: 100 μM
T3 sequence (P42681 1-527): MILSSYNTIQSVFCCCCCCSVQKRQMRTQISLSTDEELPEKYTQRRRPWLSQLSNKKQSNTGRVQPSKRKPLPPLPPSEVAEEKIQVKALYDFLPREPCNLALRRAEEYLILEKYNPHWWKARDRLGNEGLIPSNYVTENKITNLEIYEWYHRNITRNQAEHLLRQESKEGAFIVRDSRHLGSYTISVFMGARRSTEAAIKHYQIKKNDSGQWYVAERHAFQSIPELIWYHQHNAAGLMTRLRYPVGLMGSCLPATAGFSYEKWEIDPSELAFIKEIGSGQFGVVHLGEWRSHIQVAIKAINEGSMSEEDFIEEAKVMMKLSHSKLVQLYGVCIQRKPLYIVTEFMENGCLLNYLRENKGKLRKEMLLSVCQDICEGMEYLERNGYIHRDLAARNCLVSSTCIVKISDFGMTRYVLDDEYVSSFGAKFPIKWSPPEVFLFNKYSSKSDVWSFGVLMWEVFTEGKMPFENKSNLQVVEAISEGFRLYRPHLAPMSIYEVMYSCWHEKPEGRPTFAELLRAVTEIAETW

SAPK2a(T106M)(h) = SAPK2a(T106M)(h) (Homo sapiens, UniProt Q16539, T106M); conditions: for % activity: 100 μM
WNK3(h) = WNK3(h) (Homo sapiens, UniProt Q9BYP7); conditions: for % activity: 100 μM
EphA8(h) = biological target: T4, EphA8(h) (Homo sapiens, UniProt P29322); conditions: for % activity: 100 μM
T4 sequence (P29322 28-1005): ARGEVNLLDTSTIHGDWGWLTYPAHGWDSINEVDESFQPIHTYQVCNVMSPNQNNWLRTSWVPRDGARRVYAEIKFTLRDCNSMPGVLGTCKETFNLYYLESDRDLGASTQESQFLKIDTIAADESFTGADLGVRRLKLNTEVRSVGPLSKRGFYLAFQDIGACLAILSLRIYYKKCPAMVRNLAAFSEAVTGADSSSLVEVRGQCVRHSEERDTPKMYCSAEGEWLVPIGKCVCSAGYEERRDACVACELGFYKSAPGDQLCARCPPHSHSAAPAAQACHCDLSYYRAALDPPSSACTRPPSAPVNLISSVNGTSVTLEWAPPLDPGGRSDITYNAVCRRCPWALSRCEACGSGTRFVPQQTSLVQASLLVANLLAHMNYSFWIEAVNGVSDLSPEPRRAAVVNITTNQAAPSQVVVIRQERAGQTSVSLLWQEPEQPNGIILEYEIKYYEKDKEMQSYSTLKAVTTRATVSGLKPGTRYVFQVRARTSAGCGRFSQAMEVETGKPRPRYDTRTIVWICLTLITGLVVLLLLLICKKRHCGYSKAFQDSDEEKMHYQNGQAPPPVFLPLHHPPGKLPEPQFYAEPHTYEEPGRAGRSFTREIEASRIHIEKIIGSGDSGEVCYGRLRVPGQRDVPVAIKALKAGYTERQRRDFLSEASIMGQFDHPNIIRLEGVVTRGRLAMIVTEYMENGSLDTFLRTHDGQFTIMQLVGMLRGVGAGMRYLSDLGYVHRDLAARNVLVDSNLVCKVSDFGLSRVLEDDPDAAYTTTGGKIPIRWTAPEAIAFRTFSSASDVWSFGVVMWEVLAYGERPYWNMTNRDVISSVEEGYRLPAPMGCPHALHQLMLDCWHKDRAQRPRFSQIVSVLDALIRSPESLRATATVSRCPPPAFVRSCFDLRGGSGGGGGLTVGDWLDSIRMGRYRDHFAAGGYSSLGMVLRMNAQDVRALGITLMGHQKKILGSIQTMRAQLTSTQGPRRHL

PKA(h) = PKA(h) (Homo sapiens, UniProt P17612); conditions: 100 μM

Chain of SAPK2a(T106M)(h) (Q16539 whole entry T106M): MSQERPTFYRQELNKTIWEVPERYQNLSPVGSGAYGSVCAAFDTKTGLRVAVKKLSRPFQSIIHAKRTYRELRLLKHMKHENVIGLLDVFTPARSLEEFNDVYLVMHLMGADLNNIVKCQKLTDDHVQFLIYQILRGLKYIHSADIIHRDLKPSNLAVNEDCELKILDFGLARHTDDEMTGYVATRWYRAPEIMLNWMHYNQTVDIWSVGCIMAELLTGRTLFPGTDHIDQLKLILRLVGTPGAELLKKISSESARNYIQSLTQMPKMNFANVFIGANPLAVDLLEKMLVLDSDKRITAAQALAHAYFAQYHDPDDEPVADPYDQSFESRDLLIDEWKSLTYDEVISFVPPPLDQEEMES
Chain of PTK5(h) (P42685 whole entry): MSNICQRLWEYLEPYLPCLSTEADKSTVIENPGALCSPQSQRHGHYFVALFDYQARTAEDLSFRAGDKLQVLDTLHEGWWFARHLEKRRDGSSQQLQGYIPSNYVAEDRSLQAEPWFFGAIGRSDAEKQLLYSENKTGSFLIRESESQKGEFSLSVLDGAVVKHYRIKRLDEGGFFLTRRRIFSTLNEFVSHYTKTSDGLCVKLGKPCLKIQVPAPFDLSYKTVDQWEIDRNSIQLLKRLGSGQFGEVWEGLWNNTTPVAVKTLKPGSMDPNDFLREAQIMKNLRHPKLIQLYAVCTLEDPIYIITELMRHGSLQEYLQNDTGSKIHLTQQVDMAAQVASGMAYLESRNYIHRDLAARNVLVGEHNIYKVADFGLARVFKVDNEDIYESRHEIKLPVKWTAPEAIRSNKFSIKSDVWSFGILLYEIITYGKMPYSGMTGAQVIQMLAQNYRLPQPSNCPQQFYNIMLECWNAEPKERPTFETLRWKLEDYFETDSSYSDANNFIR
Chain of WNK3(h) (Q9BYP7 whole entry): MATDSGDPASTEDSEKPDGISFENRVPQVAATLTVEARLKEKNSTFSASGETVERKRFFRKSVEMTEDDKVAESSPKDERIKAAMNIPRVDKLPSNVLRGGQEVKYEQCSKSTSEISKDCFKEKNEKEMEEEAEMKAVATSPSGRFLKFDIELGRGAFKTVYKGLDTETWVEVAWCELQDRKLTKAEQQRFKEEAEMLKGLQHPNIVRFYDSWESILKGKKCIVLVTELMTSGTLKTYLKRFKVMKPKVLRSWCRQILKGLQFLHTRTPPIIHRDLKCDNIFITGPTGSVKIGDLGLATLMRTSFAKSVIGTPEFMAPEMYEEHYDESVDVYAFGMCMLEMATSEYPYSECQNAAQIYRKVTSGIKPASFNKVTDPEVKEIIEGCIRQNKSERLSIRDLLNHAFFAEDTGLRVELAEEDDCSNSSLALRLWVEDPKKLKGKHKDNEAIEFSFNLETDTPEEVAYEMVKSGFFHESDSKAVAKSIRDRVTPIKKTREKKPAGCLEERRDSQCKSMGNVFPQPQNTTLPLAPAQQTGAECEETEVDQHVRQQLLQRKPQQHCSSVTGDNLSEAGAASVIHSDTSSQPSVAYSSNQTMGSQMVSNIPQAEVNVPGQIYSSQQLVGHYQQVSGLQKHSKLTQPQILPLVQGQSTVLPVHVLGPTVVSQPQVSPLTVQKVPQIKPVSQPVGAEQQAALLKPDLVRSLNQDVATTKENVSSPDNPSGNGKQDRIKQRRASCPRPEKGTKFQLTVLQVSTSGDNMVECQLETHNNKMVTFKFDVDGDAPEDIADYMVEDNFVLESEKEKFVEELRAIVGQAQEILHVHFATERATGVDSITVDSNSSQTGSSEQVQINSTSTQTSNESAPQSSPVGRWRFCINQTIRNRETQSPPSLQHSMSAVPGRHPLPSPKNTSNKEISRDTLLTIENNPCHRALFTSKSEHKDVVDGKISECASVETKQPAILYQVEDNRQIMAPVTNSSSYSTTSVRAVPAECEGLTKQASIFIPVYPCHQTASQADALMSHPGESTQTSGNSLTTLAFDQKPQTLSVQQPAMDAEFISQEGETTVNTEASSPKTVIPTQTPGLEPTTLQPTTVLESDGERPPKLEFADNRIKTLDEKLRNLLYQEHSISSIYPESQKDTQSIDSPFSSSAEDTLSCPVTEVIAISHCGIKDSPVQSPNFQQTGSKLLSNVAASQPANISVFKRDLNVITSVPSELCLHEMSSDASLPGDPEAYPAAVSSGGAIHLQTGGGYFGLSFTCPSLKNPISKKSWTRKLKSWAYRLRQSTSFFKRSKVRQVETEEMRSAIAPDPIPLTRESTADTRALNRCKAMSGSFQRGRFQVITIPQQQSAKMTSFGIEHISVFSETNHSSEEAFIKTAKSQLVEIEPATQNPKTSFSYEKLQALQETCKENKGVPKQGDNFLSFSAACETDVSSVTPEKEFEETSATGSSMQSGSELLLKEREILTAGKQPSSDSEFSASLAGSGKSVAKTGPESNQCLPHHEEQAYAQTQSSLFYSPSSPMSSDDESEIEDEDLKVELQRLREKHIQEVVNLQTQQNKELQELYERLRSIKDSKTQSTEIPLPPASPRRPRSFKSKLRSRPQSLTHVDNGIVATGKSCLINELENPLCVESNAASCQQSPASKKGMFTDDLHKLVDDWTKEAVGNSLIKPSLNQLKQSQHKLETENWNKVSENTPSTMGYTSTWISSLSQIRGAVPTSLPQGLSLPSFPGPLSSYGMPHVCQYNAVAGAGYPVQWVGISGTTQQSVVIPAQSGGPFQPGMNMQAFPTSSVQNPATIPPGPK
Chain of EphA5(h) (P54756 25-1037): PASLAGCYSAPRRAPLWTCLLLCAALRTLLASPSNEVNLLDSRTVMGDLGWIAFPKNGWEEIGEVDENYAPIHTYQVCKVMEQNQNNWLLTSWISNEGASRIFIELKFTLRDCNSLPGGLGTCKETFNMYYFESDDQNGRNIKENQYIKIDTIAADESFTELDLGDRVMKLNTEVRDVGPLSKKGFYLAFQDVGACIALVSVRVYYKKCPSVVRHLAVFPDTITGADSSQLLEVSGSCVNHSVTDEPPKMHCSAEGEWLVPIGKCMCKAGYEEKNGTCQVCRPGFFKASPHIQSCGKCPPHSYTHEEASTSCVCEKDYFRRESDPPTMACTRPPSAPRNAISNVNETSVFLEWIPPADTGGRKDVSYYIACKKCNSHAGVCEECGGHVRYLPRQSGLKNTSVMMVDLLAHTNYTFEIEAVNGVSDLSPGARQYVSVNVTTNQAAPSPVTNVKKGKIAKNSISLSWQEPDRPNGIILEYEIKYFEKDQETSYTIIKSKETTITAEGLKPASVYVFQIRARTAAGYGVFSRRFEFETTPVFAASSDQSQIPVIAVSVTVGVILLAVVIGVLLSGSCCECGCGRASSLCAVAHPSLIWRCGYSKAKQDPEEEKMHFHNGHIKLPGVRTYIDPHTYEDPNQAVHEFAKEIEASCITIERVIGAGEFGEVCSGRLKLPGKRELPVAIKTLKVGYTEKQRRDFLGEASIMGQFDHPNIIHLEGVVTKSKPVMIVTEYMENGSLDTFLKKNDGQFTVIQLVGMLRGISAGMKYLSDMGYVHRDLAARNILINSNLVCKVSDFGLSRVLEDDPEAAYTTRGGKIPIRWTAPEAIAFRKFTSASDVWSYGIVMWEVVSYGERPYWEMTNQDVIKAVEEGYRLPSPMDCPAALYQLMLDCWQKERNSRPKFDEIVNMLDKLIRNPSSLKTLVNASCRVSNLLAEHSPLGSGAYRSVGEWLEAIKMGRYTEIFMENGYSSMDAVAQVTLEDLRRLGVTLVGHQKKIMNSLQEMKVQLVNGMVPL

With “HRRIKAWLKKIKALARQLGVAA (Mammalian) [MMI-0500]” the “% activity” value (DYRK2(h)) was 127%, the “% activity” value (PTK5(h)) was 96% and the “% activity” value (SGK3(h)) was -3%. For the same substance, the “% activity” value (EphA5(h)) was 42%, the “% activity” value (Txk(h)) was 10% and the “% activity” value (SAPK2a(T106M)(h)) was 32%. The “% activity” value (WNK3(h)) was 9%, the “% activity” value (EphA8(h)) was 337% and the “% activity” value (PKA(h)) was 118%.

With “YARAAARQARAKALNRQLGVA (Mammalian) [MMI-0200]” the “% activity” value (DYRK2(h)) was 142%, the “% activity” value (PTK5(h)) was 108% and the “% activity” value (SGK3(h)) was 58%. For the same substance, the “% activity” value (EphA5(h)) was 123%, the “% activity” value (Txk(h)) was 98% and the “% activity” value (SAPK2a(T106M)(h)) was 100%. For the same substance, the “% activity” value (WNK3(h)) was 97%, the “% activity” value (EphA8(h)) was 133% and the “% activity” value (PKA(h)) was 110%.

Substance H-YARAAARQARAKALARQLGVAA-OH [MMI-0100] has an activity at 100 µM (PTK5(h)) of 135%, an activity at 100 µM (SGK3(h)) of 95% and an activity at 100 µM (EphA5(h)) of 110%. The activity at 100 µM (Txk(h)) was 87%, the activity at 100 µM (SAPK2a(T106M)(h)) was 101% and the activity at 100 µM (WNK3(h)) was 100%. For the same substance, the activity at 100 µM (EphA8(h)) was 181%.
